According to patent US20230242635A1 (published 2023):

B1: caninized anti-IL31 antibody 34D03 (mAb1), canine IgGB, N434M (antibody)
chain 1: EVQLVESGGDLVKPGGSLRLSCVASGFTFSNYGMSWVRQAPGKGLQWVATISYGGSYTYYPDNIKGRFTISRDNAKNTLYLQMNSLRAEDTAMYYCVRGYGYDTMDYWGQGTLVTVSSASTTAPSVFPLAPSCGSTSGSTVALACLVSGYFPEPVTVSWNSGSLTSGVHTFPSVLQSSGLYSLSSMVTVPSSRWPSETFTCNVAHPASKTKVDKPVPKRENGRVPRPPDCPKCPAPEMLGGPSVFIFPPKPKDTLLIARTPEVTCVVVDLDPEDPEVQISWFVDGKQMQTAKTQPREEQFNGTYRVVSVLPIGHQDWLKGKQFTCKVNNKALPSPIERTISKARGQAHQPSVYVLPPSREELSKNTVSLTCLIKDFFPPDIDVEWQSNGQQEPESKYRTTPPQLDEDGSYFLYSKLSVDKSRWQRGDTFICAVMHEALHMHYTQESLSHSPGK
chain 2: EIVMTQSPASLSLSQEEKVTITCKASQSVSFAGTGLMHWYQQKPGQAPKLLIYRASNLEAGVPSRFSGSGSGTDFSFTISSLEPEDVAVYYCQQSREYPWTFGQGTKLEIK
B2: caninized anti-IL31 antibody 34D03 (mAb1), canine IgGB, N434Q (antibody)
chain 1: EVQLVESGGDLVKPGGSLRLSCVASGFTFSNYGMSWVRQAPGKGLQWVATISYGGSYTYYPDNIKGRFTISRDNAKNTLYLQMNSLRAEDTAMYYCVRGYGYDTMDYWGQGTLVTVSSASTTAPSVFPLAPSCGSTSGSTVALACLVSGYFPEPVTVSWNSGSLTSGVHTFPSVLQSSGLYSLSSMVTVPSSRWPSETFTCNVAHPASKTKVDKPVPKRENGRVPRPPDCPKCPAPEMLGGPSVFIFPPKPKDTLLIARTPEVTCVVVDLDPEDPEVQISWFVDGKQMQTAKTQPREEQFNGTYRVVSVLPIGHQDWLKGKQFTCKVNNKALPSPIERTISKARGQAHQPSVYVLPPSREELSKNTVSLTCLIKDFFPPDIDVEWQSNGQQEPESKYRTTPPQLDEDGSYFLYSKLSVDKSRWQRGDTFICAVMHEALHQHYTQESLSHSPGK
chain 2: EIVMTQSPASLSLSQEEKVTITCKASQSVSFAGTGLMHWYQQKPGQAPKLLIYRASNLEAGVPSRFSGSGSGTDFSFTISSLEPEDVAVYYCQQSREYPWTFGQGTKLEIK
B3: caninized anti-IL31 antibody 34D03 (mAb1), canine IgGB, N434R (antibody)
chain 1: EVQLVESGGDLVKPGGSLRLSCVASGFTFSNYGMSWVRQAPGKGLQWVATISYGGSYTYYPDNIKGRFTISRDNAKNTLYLQMNSLRAEDTAMYYCVRGYGYDTMDYWGQGTLVTVSSASTTAPSVFPLAPSCGSTSGSTVALACLVSGYFPEPVTVSWNSGSLTSGVHTFPSVLQSSGLYSLSSMVTVPSSRWPSETFTCNVAHPASKTKVDKPVPKRENGRVPRPPDCPKCPAPEMLGGPSVFIFPPKPKDTLLIARTPEVTCVVVDLDPEDPEVQISWFVDGKQMQTAKTQPREEQFNGTYRVVSVLPIGHQDWLKGKQFTCKVNNKALPSPIERTISKARGQAHQPSVYVLPPSREELSKNTVSLTCLIKDFFPPDIDVEWQSNGQQEPESKYRTTPPQLDEDGSYFLYSKLSVDKSRWQRGDTFICAVMHEALHRHYTQESLSHSPGK
chain 2: EIVMTQSPASLSLSQEEKVTITCKASQSVSFAGTGLMHWYQQKPGQAPKLLIYRASNLEAGVPSRFSGSGSGTDFSFTISSLEPEDVAVYYCQQSREYPWTFGQGTKLEIK
B4: caninized anti-IL31 antibody 34D03 (mAb1), canine IgGB, N434S (antibody)
chain 1: EVQLVESGGDLVKPGGSLRLSCVASGFTFSNYGMSWVRQAPGKGLQWVATISYGGSYTYYPDNIKGRFTISRDNAKNTLYLQMNSLRAEDTAMYYCVRGYGYDTMDYWGQGTLVTVSSASTTAPSVFPLAPSCGSTSGSTVALACLVSGYFPEPVTVSWNSGSLTSGVHTFPSVLQSSGLYSLSSMVTVPSSRWPSETFTCNVAHPASKTKVDKPVPKRENGRVPRPPDCPKCPAPEMLGGPSVFIFPPKPKDTLLIARTPEVTCVVVDLDPEDPEVQISWFVDGKQMQTAKTQPREEQFNGTYRVVSVLPIGHQDWLKGKQFTCKVNNKALPSPIERTISKARGQAHQPSVYVLPPSREELSKNTVSLTCLIKDFFPPDIDVEWQSNGQQEPESKYRTTPPQLDEDGSYFLYSKLSVDKSRWQRGDTFICAVMHEALHSHYTQESLSHSPGK
chain 2: EIVMTQSPASLSLSQEEKVTITCKASQSVSFAGTGLMHWYQQKPGQAPKLLIYRASNLEAGVPSRFSGSGSGTDFSFTISSLEPEDVAVYYCQQSREYPWTFGQGTKLEIK
B5: caninized anti-IL31 antibody 34D03 (mAb1), canine IgGB, N434T (antibody)
chain 1: EVQLVESGGDLVKPGGSLRLSCVASGFTFSNYGMSWVRQAPGKGLQWVATISYGGSYTYYPDNIKGRFTISRDNAKNTLYLQMNSLRAEDTAMYYCVRGYGYDTMDYWGQGTLVTVSSASTTAPSVFPLAPSCGSTSGSTVALACLVSGYFPEPVTVSWNSGSLTSGVHTFPSVLQSSGLYSLSSMVTVPSSRWPSETFTCNVAHPASKTKVDKPVPKRENGRVPRPPDCPKCPAPEMLGGPSVFIFPPKPKDTLLIARTPEVTCVVVDLDPEDPEVQISWFVDGKQMQTAKTQPREEQFNGTYRVVSVLPIGHQDWLKGKQFTCKVNNKALPSPIERTISKARGQAHQPSVYVLPPSREELSKNTVSLTCLIKDFFPPDIDVEWQSNGQQEPESKYRTTPPQLDEDGSYFLYSKLSVDKSRWQRGDTFICAVMHEALHTHYTQESLSHSPGK
chain 2: EIVMTQSPASLSLSQEEKVTITCKASQSVSFAGTGLMHWYQQKPGQAPKLLIYRASNLEAGVPSRFSGSGSGTDFSFTISSLEPEDVAVYYCQQSREYPWTFGQGTKLEIK
B6: caninized anti-IL31 antibody 34D03 (mAb1), canine IgGB, N434V (antibody)
chain 1: EVQLVESGGDLVKPGGSLRLSCVASGFTFSNYGMSWVRQAPGKGLQWVATISYGGSYTYYPDNIKGRFTISRDNAKNTLYLQMNSLRAEDTAMYYCVRGYGYDTMDYWGQGTLVTVSSASTTAPSVFPLAPSCGSTSGSTVALACLVSGYFPEPVTVSWNSGSLTSGVHTFPSVLQSSGLYSLSSMVTVPSSRWPSETFTCNVAHPASKTKVDKPVPKRENGRVPRPPDCPKCPAPEMLGGPSVFIFPPKPKDTLLIARTPEVTCVVVDLDPEDPEVQISWFVDGKQMQTAKTQPREEQFNGTYRVVSVLPIGHQDWLKGKQFTCKVNNKALPSPIERTISKARGQAHQPSVYVLPPSREELSKNTVSLTCLIKDFFPPDIDVEWQSNGQQEPESKYRTTPPQLDEDGSYFLYSKLSVDKSRWQRGDTFICAVMHEALHVHYTQESLSHSPGK
chain 2: EIVMTQSPASLSLSQEEKVTITCKASQSVSFAGTGLMHWYQQKPGQAPKLLIYRASNLEAGVPSRFSGSGSGTDFSFTISSLEPEDVAVYYCQQSREYPWTFGQGTKLEIK
B7: caninized anti-IL31 antibody 34D03 (mAb1), canine IgGB, N434W (antibody)
chain 1: EVQLVESGGDLVKPGGSLRLSCVASGFTFSNYGMSWVRQAPGKGLQWVATISYGGSYTYYPDNIKGRFTISRDNAKNTLYLQMNSLRAEDTAMYYCVRGYGYDTMDYWGQGTLVTVSSASTTAPSVFPLAPSCGSTSGSTVALACLVSGYFPEPVTVSWNSGSLTSGVHTFPSVLQSSGLYSLSSMVTVPSSRWPSETFTCNVAHPASKTKVDKPVPKRENGRVPRPPDCPKCPAPEMLGGPSVFIFPPKPKDTLLIARTPEVTCVVVDLDPEDPEVQISWFVDGKQMQTAKTQPREEQFNGTYRVVSVLPIGHQDWLKGKQFTCKVNNKALPSPIERTISKARGQAHQPSVYVLPPSREELSKNTVSLTCLIKDFFPPDIDVEWQSNGQQEPESKYRTTPPQLDEDGSYFLYSKLSVDKSRWQRGDTFICAVMHEALHWHYTQESLSHSPGK
chain 2: EIVMTQSPASLSLSQEEKVTITCKASQSVSFAGTGLMHWYQQKPGQAPKLLIYRASNLEAGVPSRFSGSGSGTDFSFTISSLEPEDVAVYYCQQSREYPWTFGQGTKLEIK

Assays:
[1] = target: T1, canine FcRn complex (FcRn-α subunit and β-microglobulin), biotin labeled by BirA, captured on SA chip … (canine, UniProt A0A8I3PFR8 25-296, biotin label by BirA enzymatic biotinylation (BAP tag)); assay: SPR (Biacore), biotinylated FcRn captured on SA chip, IgG flowed, pH 6, 15 C
[2] = target: T1, canine FcRn complex (FcRn-α subunit and …); assay: SPR (Biacore), biotinylated FcRn captured on SA chip, IgG flowed, pH 7.4, 15 C

T1 sequence (A0A8I3PFR8 entry or part of it, one chain of several): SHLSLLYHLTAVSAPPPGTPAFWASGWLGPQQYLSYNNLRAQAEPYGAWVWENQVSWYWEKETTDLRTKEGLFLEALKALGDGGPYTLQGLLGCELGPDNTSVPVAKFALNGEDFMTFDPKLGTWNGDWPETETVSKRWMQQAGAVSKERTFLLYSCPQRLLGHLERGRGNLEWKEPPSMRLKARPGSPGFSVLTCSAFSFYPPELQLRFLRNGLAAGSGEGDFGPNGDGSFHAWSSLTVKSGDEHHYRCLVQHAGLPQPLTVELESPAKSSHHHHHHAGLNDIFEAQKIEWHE

Binder	Kd [1] [nM]	Kd [2] [nM]
B1	14.2	146000
B2	5.91	21.8
B3	0.906	3.11
B4	20.2	6960
B5	34.2	554
B6	6.16	2750
B7	1.98	25300
